Assay results published in patent publication US20250066499A1 (SUNSHINE GUOJIAN PHARMACEUTICAL SHANGHAI, published 2025).
Where a chain is given by its changes, count along the chain named.

Experiments:
CD73-ND-L138A = biological target: T1, CD73-ND-L138A (human, UniProt P21589 27-317); assay: ELISA, biotinylated antigen on streptavidin plate
T1 construct: Alanine mutant of CD73-ND
T1 sequence: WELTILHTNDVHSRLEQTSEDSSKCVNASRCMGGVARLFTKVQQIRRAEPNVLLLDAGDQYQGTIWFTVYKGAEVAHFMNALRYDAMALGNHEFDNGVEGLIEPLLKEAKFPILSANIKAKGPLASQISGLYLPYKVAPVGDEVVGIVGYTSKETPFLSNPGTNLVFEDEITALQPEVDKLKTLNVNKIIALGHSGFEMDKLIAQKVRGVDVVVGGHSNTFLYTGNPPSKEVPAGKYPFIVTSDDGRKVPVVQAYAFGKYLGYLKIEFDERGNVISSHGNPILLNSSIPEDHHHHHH
Protocol: (§1) The ELISA plates were coated with SA protein diluted to 1.5 μg/mL in coating buffer (50 mM carbonate coating buffer, pH 9.6) and incubated overnight at 4° C. The supernatant was discarded, and the plates were washed three times with PBST. Then, 5% skimmed milk powder prepared with PBS was added for blocking and the plates were incubated for 2 h at 37° C. After washing the plates once with PBST, CD73-biotin protein (prepared by biotinylating CD73-His protein according to the EZ-Link NHS-Biotin Reagent instructions) was diluted to 0.5 μg/mL and added at 100 μL/well for incubation at room temperature for 1 h. The plates were washed three times with PBST, and the prepared murine-derived monoclonal antibodies against human CD73 were serially diluted with 1% BSA buffer prepared with PBST and added to the ELISA plates at 100 μl/well. The plates were incubated at 37° C. for 1 h. After washing the plates three times with PBST, HRP-labeled goat anti-mouse IgG secondary antibody was added and the plates were incubated for 30 min at 37° C. After washing the plates three times with PBST, the residual droplets were patted dry on absorbent paper as much as possible. Then, 100 μl of TMB color developing solution was added to each well, and the plates were incubated in the dark at room temperature for 5 min for color development. Subsequently, 50 μl of 2M H₂SO₄ stop solution was added to each well to terminate the substrate reaction. The OD values were read at 450 nm using a multimode microplate reader to analyze the binding ability of the tested antibodies to the target antigen human CD73-His.
(§2) Referring to the experimental method in Example 3, the affinity of 48A11-HuV33 for various mutant proteins of CD73-ND was determined. The SA protein was diluted to 1 μg/mL for coating the ELISA plates, and the biotinylated CD73 protein (CD73-biotin) was used at a concentration of 0.1 μg/mL.

CD73-ND-K136A = biological target: T2, CD73-ND-K136A (human, UniProt P21589 27-317); assay: ELISA, biotinylated antigen on streptavidin plate
T2 construct: Alanine mutant of CD73-ND
T2 sequence: T1 sequence with K136A, A138L
Protocol: as §1, §2

CD73-ND-V137A = biological target: T3, CD73-ND-V137A (human, UniProt P21589 27-317); assay: ELISA, biotinylated antigen on streptavidin plate
T3 construct: Alanine mutant of CD73-ND
T3 sequence: T1 sequence with V137A, A138L
Protocol: as §1, §2

CD73-ND-his [1] = biological target: T4, CD73-ND-his (human, UniProt P21589 27-317); assay: ELISA, biotinylated antigen on streptavidin plate
T4 construct: Biotinylated and captured on streptavidin in the ELISA
T4 sequence: T1 sequence with A138L
Protocol: as §1, §2

CD73-ND-Y132A = biological target: T5, CD73-ND-Y132A (human, UniProt P21589 27-317); assay: ELISA, biotinylated antigen on streptavidin plate
T5 construct: Alanine mutant of CD73-ND
T5 sequence: T1 sequence with Y132A, A138L
Protocol: as §1, §2

CD73-ND-Y135A = biological target: T6, CD73-ND-Y135A (human, UniProt P21589 27-317); assay: ELISA, biotinylated antigen on streptavidin plate
T6 construct: Alanine mutant of CD73-ND
T6 sequence: T1 sequence with Y135A, A138L
Protocol: as §1, §2

CD73-ND-his [2] = biological target: T4, CD73-ND-his; assay: ELISA as in Example 3, antigen CD73-ND-his, antibody titrated, absorbance 450 nm

B1: 48A11-HuV33 (antibody, human IgG4, V domains shown)
VH: QVQLVQSGAEVKKPGASVKVSCKASGYTFTSYWMHWVRQAPGQGLEWIGEINPSIGRTNYNEKFKSRVTLTRDTSTSTAYMELSSLRSEDTAVYYCARRVYGTMDYWGQGTLVTVSS
VL: DIQMTQSPSSLSASVGDRVTITCKASQDINSYLSWFQQKPGKSPKLLIYRANIWVDGVPSRFSGSGSGQDYTFTISSLQPEDIATYYCLQYDELYTFGQGTKVEIK
notes: Humanized
Binder B1 has an EC50 (CD73-ND-L138A) of 0.182 nM, an EC50 (CD73-ND-K136A) of 0.145 nM and an EC50 (CD73-ND-V137A) of 0.891 nM. For the same binder, the EC50 (CD73-ND-his [1]) was 0.152 nM, the EC50 (CD73-ND-Y132A) was 10.5 nM and the EC50 (CD73-ND-Y135A) was 0.165 nM. The “EC50 (read off the curve)” value (CD73-ND-his [2]) was about 0.04 nM.
